This is an account of results in US7740882B2, “Enhanced oral and transcompartmental delivery of therapeutic or diagnostic agents” (priority 2001, dated 2010).

What is called Papp A→B is how fast a substance crosses the layer from the apical side. Read a high Papp A→B as ready permeation. One may read the EC50 as the concentration needed to bring the measured effect to its halfway point.

Data set [1] has as its target T1, SMVT (Homo sapiens, UniProt Q9Y289).
T1 sequence (Q9Y289 1-635): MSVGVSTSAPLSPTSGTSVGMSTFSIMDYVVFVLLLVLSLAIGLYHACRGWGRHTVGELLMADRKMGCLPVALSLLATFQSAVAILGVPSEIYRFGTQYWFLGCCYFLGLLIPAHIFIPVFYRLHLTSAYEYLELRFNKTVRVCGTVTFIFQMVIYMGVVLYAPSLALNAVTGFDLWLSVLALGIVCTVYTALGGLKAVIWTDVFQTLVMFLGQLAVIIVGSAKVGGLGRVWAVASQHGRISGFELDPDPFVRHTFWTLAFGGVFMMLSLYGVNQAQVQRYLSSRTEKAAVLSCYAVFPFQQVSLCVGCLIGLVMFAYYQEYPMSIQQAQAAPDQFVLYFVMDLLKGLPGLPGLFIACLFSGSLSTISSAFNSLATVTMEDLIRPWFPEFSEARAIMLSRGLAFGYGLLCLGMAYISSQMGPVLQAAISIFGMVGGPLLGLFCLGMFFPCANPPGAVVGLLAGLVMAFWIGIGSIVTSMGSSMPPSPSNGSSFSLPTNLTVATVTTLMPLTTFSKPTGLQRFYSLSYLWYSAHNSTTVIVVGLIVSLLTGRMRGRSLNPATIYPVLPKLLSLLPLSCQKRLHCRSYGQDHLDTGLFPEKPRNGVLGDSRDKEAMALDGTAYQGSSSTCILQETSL
Briefly: Inhibition of substrate uptake in CHO/hSMVT cells by 50 μM SMVT substrates. Type of data set: in vitro ADME. To be noted: for inhibition of RI-K(biotin)-Tat9 uptake: 0.1 μM RI-K(biotin)-Tat9, inhibitor 50 μM; for inhibition of biotin-PEG-3400 uptake: 0.1 μM biotin-PEG-3400, inhibitor 50 μM; for inhibition of PEG:(RI-K(biotin)-Tat9)8 uptake: 0.1 μM conjugate, inhibitor 50 μM. Also on record: expressed in transfected cells; host or cells: CHO cells (ATCC), transient Lipofectamine transfection; plasmid was a gift of Dr. Puttur D. Prasad.

In data set [2] the target is T2, SMVT in BBMECs (Bos taurus, UniProt A1L530).
T2 construct: endogenous in cells; host or cells: primary bovine brain microvessel endothelial cells (BBMECs)
T2 sequence (A1L530 1-638): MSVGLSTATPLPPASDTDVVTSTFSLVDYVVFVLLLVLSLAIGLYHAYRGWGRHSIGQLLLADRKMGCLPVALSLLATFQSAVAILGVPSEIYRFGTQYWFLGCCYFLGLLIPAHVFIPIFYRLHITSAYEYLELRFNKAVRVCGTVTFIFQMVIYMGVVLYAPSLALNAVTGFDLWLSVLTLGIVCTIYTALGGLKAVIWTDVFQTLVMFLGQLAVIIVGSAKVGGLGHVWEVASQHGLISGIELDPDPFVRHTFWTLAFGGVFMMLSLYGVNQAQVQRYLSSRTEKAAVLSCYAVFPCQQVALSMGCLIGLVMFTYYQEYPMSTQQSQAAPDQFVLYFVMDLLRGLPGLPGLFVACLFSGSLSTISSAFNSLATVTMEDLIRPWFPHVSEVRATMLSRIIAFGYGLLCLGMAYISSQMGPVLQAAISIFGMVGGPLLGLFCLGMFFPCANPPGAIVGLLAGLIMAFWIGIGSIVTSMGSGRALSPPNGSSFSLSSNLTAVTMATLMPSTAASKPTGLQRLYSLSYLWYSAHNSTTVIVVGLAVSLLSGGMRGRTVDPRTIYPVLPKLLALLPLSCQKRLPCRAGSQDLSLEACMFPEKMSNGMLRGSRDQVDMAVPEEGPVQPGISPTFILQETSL
As to the kind of experiment: Biotin uptake by BBMECs (characterization of biotin transporter). Format: in vitro ADME, bovine.

Data set [3] in a line: in vitro. As to conditions: human, Caco-2.
The subject of data set [4] is Caco-2 cell monolayers. As to the kind of experiment: Absorptive (AP to BL) transport across Caco-2 cell monolayers. To be noted: Caco-2 AP to BL. For orientation: Caco-2 cells form a polarised layer with tight junctions and transporters.
For data set [5], the system named is differentiated HL-60 cells. As to the kind of experiment: Intracellular calcium assay (45Ca release from intracellular stores). As to conditions: for EC50: differentiated HL-60 cells, calcium release, read-out: Cell Activation EC50. Type of data set: cell-based, human. As for the experimental part: Intracellular Calcium Assay. HL-60 cells (2×10^5 cells/mL) were grown in the presence of 1.3% DMSO for 5 days. For each time course experiment, 2×10^6 cells were resuspended in 5 mL of HBSS containing 2 mCi/mL of ^45CaCl2 as the sole source of calcium. After 90 min incubation at 37° C., cells were washed twice as above with cold HBSS. […] Cell pellets were treated with 0.5% Triton X-100/0.1 M NaOH and centrifuged in tubes containing 0.3 mL of 10% sucrose and radioactivity associated with the pellets was measured; this represents vesicle-associated ^45Ca. The top portion of the tube, which contained the cytoplasmic ^45Ca was also measured.
On the technique in general: A change in cytosolic calcium serves as a functional read-out for many receptors and channels.

Data set [6] addresses T3, fMLF receptor on differentiated HL-60 cells (Homo sapiens, UniProt P21462).
T3 construct: endogenous in cells; host or cells: HL-60 cells differentiated with 1.3% DMSO for 48 h; whole cells
T3 sequence (P21462 1-350): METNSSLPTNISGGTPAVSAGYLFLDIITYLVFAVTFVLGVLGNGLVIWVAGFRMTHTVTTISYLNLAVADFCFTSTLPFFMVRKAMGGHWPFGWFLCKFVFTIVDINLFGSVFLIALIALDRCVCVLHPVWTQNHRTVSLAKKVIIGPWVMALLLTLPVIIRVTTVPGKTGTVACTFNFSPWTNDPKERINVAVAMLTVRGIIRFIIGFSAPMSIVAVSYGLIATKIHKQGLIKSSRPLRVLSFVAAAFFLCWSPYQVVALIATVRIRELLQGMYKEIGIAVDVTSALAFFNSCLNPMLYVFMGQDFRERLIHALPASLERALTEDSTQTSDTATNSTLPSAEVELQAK
As to the kind of experiment: Competitive receptor binding assay with fML[3H]F. To be noted: for Avidity Activation EC50/Kd: ratio of EC50 (calcium) to Kd.

Substrate in data set [7]: O=C(O)CCCC[C@@H]1SC[C@@H]2NC(=O)N[C@@H]21
Briefly: cells, lysate or membranes named. As to conditions: 37° C.

The mark [8] stands for this setting: Kd multiplied by average number of fMLF moieties, read-out: Relative Avidity Kd/fMLP.
[9] abbreviates: differentiated HL-60 cells, competition with fML[3H]F, read-out: Avidity Kd.

“Also recorded” adds a separate entry of the source. Read-outs that look alike come from different tables or passages of the source.

In the case of `C[C@@H]1NC(=O)N[C@@H]1CCCCCC(=O)O` [desthiobiotin], in data set [1], the “inhibition of RI-K(biotin)-Tat9 uptake” value is “significantly inhibited; also recorded: significantly lowered (p<0.001)”, the “inhibition of biotin-PEG-3400 uptake” value was “significantly (p<0.01) inhibited” and the “inhibition of PEG:(RI-K(biotin)-Tat9)8 uptake” value is “significantly lower (p<0.05)”. Further, the “inhibition of biotin uptake” value in data set [2] is reported as “inhibited the uptake of biotin significantly”.

Turning to `N[C@@H]1[C@H](CCCCC(=O)O)SC[C@@H]1N` [diaminobiotin], the “inhibition of biotin uptake” value in data set [2] is “very weak”.

Turning to `N=C1N[C@H]2[C@H](CS[C@H]2CCCCC(=O)O)N1` [iminobiotin], the “inhibition of biotin uptake” value in data set [2] is “very weak”.

The molecule `OC[C@@H](O)[C@@H](O)[C@H](O)[C@H](O)CO` [mannitol] gave a Papp A→B at 105 min in data set [3] of 2.12 ×10⁻⁶ cm/s. The “absorptive/effective permeability (Pe)” value in data set [4] is 1.42 (±0.28)×10^−6 cm/sec.

As to `CC(C)(CO)[C@@H](O)C(=O)NCCC(=O)O` [pantothenic acid], in data set [1], the “inhibition of RI-K(biotin)-Tat9 uptake” value is reported as “significantly inhibited”, the “inhibition of biotin-PEG-3400 uptake” value is listed as “significantly (p<0.01) inhibited” and the “inhibition of PEG:(RI-K(biotin)-Tat9)8 uptake” value is on record as “significantly lower (p<0.05)”. In addition, the “inhibition of biotin uptake” value in data set [2] is “inhibited the uptake of biotin significantly”.

On to “B3-PEG-fMLF3: 3-arm branched amino-PEG fully coupled with fMLF”, for which the EC50 in data set [5] is 9.6 nM. The Kd in data set [6] (setting [8]) amounted to 5.7 nM; in data set [6] (setting [9]) it was 1.9 nM. Moreover, the “Avidity Activation EC50/Kd” value in data set [6] was 5.05.

In the case of “B4-PEG-fMLF4: 4-arm branched amino-PEG fully coupled with fMLF”, in data set [5], the 50% effective concentration (EC50) amounted to 5 nM. The Kd in data set [6] (setting [8]) worked out at 3.2 nM; in data set [6] (setting [9]) it was 0.8 nM. Also, the “Avidity Activation EC50/Kd” value in data set [6] is listed as 6.25.

In the case of “B8-PEG-fMLF1.1: 8-arm branched amino-PEG with on average 1.1 fMLF residues per polymer”, in data set [5] (even at 100 nM polymer), the calcium flux entry was “virtually no flux of calcium”. The Kd is 209 nM in data set [6] (setting [8]) and 190 nM in data set [6] (setting [9]).

Consider “B8-PEG-fMLF5.5: 8-arm branched amino-PEG with on average 5.5 fMLF residues per polymer”, for which the concentration for a half-maximal effect (EC50) in data set [5] was 5.3 nM. In addition, the figures for the Kd in data set [6] (setting [8]) and in data set [6] (setting [9]) were 2.75 nM and 0.5 nM, respectively. Further, the “Avidity Activation EC50/Kd” value in data set [6] is 10.6.

As for “B8-PEG-fMLF8: 8-arm branched amino-PEG with 8 fMLF residues per polymer”, the cellular activation entry in data set [5] (at 1 nM) is given as “little or no cellular activation”. In addition, in data set [5], the EC50 was 5 nM. For the same molecule, in data set [6], the “increase in avidity over B8-PEG-fMLF1.1” value is given as “more than 1000 fold” and the “Avidity Activation EC50/Kd” value was 27.8. Besides, the Kd in data set [6] (setting [8]) amounted to 1.44 nM. The same molecule showed a fMLF receptors occupied in data set [6] (at 1 nM) of approximately 100%. In data set [6] (setting [9]), the Kd stood at 0.18 nM.

Consider “PEG/A-fMLF4: linear PEG-aspartate copolymer (29 kDa) with four fMLF residues”, for which the Kd in data set [6] (setting [8]) was determined as 4.4 nM; in data set [6] (setting [9]), 1.1 nM.

B1: SMVT in BBMECs (Bos taurus) (protein)
chain: T2 sequence (A1L530 1-638)
Regarding B1, the Km in data set [7] (other: BBMECs) was 54.6 µM.

B2: human sodium dependent multivitamin transporter, hSMVT (Homo sapiens) (protein)
chain: T1 sequence (Q9Y289 1-635)
In the case of B2, in data set [7] (other: uptake in CHO/hSMVT cells, 10 min, pH 7.5), the Km is 1.39 (0.59) μM.
